Experimental data as given in publication PMC2174084.

Target: rabbit skeletal muscle actin, polymerized (F-actin) (rabbit) (UniProt P68135)
Test: co-sedimentation

stoichiometry N (Kelch per actin (molar ratio)): 0.25
Substance: full-length Kelch (purified, recombinant; ORF1 cDNA) (natural protein)
